What is called stoichiometry N is the number of molecules, sites or subunits per partner or assembly.

These results are taken from publication doi:10.1101/2023.01.07.523125.

This experiment deals with human Slack channel (Slo2.2, KCNT1) (human) (UniProt Q5JUK3). Kind of experiment: cryo-EM structure.

In turn, “human Slack channel (Slo2.2, KCNT1) (from UniProt Q5JUK3 1-1230) (natural protein)” had a stoichiometry N of 4.
